The supplement of paper PMC7125110
± gives the standard error. For some assays here: Variants at the floor of the assay were thinned out.

B1: glmS ribozyme (parent)
chain: AUAAAAGCGCCAGAACUACAGAAAUGUAGUUGACGAGGAGGAGGUUUAUCGAAUUUUCGGCGGAUGCCUCCAAA

What was measured:
Conditions in all cases: with glucosamine-6-phosphate
glucosamine-6-phosphate [1] = variants of: B1; experiment: kcat; higher = faster cleavage; RNA array
How it was run: (§1)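 Glucosamine-6-phosphate in HEPES/KCl/Mg(OAc)2 buffer, at 40 μM to 10 mM, was flowed over barcoded ribozyme variants transcribed in situ by E. coli RNA polymerase on sequenced MiSeq chips. Tracking was through a hybridised Cy3 probe at 37 °C. kobs, kcat and KM came from exponential decay fits and weighted Michaelis–Menten fits of normalised per-tile medians.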

glucosamine-6-phosphate [2] = variants of: B1; experiment: KM; higher = weaker cofactor use; RNA array
How it was run: as §1

glucosamine-6-phosphate [3] = variants of: B1; experiment: self-cleavage kobs at 2500 uM GlcN6P; higher = faster cleavage; RNA array
How it was run: as §1

glucosamine-6-phosphate [4] = variants of: B1; experiment: self-cleavage kobs at 10000 uM GlcN6P; higher = faster cleavage; RNA array
How it was run: as §1

glucosamine-6-phosphate [5] = variants of: B1; experiment: self-cleavage kobs at 160 uM GlcN6P; higher = faster cleavage; RNA array
How it was run: as §1

glucosamine-6-phosphate [6] = variants of: B1; experiment: self-cleavage kobs at 640 uM GlcN6P; higher = faster cleavage; RNA array
How it was run: as §1

glucosamine-6-phosphate [7] = variants of: B1; experiment: self-cleavage kobs at 40 uM GlcN6P; higher = faster cleavage; RNA array
How it was run: as §1

Row | Variant | kcat (glucosamine-6-phosphate [1]) [s⁻¹] | KM (glucosamine-6-phosphate [2]) [µM] | self-cleavage kobs at 2500 uM GlcN6P (glucosamine-6-phosphate [3]) [s⁻¹] | self-cleavage kobs at 10000 uM GlcN6P (glucosamine-6-phosphate [4]) [s⁻¹] | self-cleavage kobs at 160 uM GlcN6P (glucosamine-6-phosphate [5]) [s⁻¹] | self-cleavage kobs at 640 uM GlcN6P (glucosamine-6-phosphate [6]) [s⁻¹] | self-cleavage kobs at 40 uM GlcN6P (glucosamine-6-phosphate [7]) [s⁻¹]
1 | U54C U57C | 0.000143 ± 2e-05 | 3450 ± 1100 | 6.28e-05 ± 1.1e-05 | 0.000105 ± 1.6e-05 |  |  | 
2 | U54G G60U | < 1e-05 |  |  |  |  |  | 
3 | U56C C68G | < 1e-05 |  |  | < 1e-05 | < 1e-05 |  | 
4 | U55C U69C | 0.00119 ± 0.00046 |  | 0.000177 ± 2.6e-05 | 0.000523 ± 0.00012 |  | 6.77e-05 ± 2.8e-05 | 
5 | U55C U69G | 1.99e-05 ± 1.9e-06 |  |  |  |  |  | 
6 | U54G G60C C68G | 3.07e-05 ± 1.4e-05 |  |  |  |  |  | 
7 | U56A C68A | 4.71e-05 ± 1.1e-05 |  | 5.61e-05 ± 1e-05 |  | 5.43e-05 ± 1e-05 | 5.74e-05 ± 1e-05 | 
8 | U56A C68G | 7.31e-05 ± 8.9e-06 |  | 6.61e-05 ± 7.6e-06 | 6.94e-05 ± 7.3e-06 | 6.33e-05 ± 1.2e-05 | 0.00011 ± 1.5e-05 | 
9 | U55C C67U | 0.000234 ± 1.4e-05 | 499 ± 120 | 0.000173 ± 4.2e-05 | 0.000231 ± 3e-05 |  | 0.000134 ± 2.5e-05 | 
10 | U55C C67G | < 1e-05 |  |  |  |  |  | < 1e-05
11 | U55C C67A | 0.000193 ± 6.1e-05 |  | 0.000137 ± 2.4e-05 | 0.00029 ± 5.7e-05 |  | 0.000133 ± 2.3e-05 | 
12 | U55C G60A | 1.48e-05 ± 1.8e-06 |  |  |  |  |  | < 1e-05
13 | U55G G66C | 0.000625 ± 0.00013 |  | 0.000325 ± 7e-05 | 0.000624 ± 0.0001 |  | 0.000216 ± 4.5e-05 | 
14 | U54G U65A | 0.00375 ± 0.00091 | 2250 ± 730 | 0.00199 ± 0.00034 | 0.00315 ± 0.00065 | 0.000213 ± 3.8e-05 | 0.0008 ± 0.00014 | 9.07e-05 ± 1.5e-05
15 | U54C C58A | 0.000427 ± 0.0001 | 3720 ± 1300 | 0.000153 ± 2.3e-05 | 0.000361 ± 7.7e-05 |  | 6.93e-05 ± 1.1e-05 | 
16 | U55A U65G | 0.00556 ± 0.0024 |  | 0.00303 ± 0.001 | 0.00343 ± 0.00072 | 0.000125 ± 4.4e-05 | 0.000517 ± 0.0001 | 7.69e-05 ± 2.5e-05
17 | U54C C68G | 8.49e-05 ± 1.1e-05 |  | 9.2e-05 ± 1.4e-05 | 7.49e-05 ± 1e-05 |  | 4.44e-05 ± 1e-05 | 
18 | U54C U56G | 0.0154 ± 0.0051 | 2680 ± 1100 |  | 0.0133 ± 0.0027 | 0.000649 ± 0.00019 | 0.0032 ± 0.0011 | 0.000282 ± 4.7e-05

Row | Variant | kcat (glucosamine-6-phosphate [1]) [s⁻¹] | KM (glucosamine-6-phosphate [2]) [µM] | self-cleavage kobs at 2500 uM GlcN6P (glucosamine-6-phosphate [3]) [s⁻¹] | self-cleavage kobs at 10000 uM GlcN6P (glucosamine-6-phosphate [4]) [s⁻¹] | self-cleavage kobs at 160 uM GlcN6P (glucosamine-6-phosphate [5]) [s⁻¹] | self-cleavage kobs at 640 uM GlcN6P (glucosamine-6-phosphate [6]) [s⁻¹] | self-cleavage kobs at 40 uM GlcN6P (glucosamine-6-phosphate [7]) [s⁻¹]
19 | U54C U56C | 0.0062 ± 0.0012 | 4050 ± 1000 | 0.002 ± 0.00042 | 0.00471 ± 0.00069 | 0.000223 ± 3.3e-05 | 0.00084 ± 0.00013 | 7.75e-05 ± 1.4e-05
20 | U54G U56G | 0.016 ± 0.0043 | 2790 ± 950 | 0.00688 ± 0.0019 | 0.013 ± 0.0058 | 0.000796 ± 0.00017 | 0.00338 ± 0.00059 | 
21 | U55A U57A | 0.000112 ± 3.7e-05 |  | 8.45e-05 ± 2.7e-05 |  |  | 7.83e-05 ± 1.8e-05 | 
22 | U55G C58U | 0.00011 ± 7.5e-06 | 7880 ± 1100 | 2.7e-05 ± 8.5e-06 | 6.17e-05 ± 7.4e-06 |  |  | 
23 | U56G C61U | < 1e-05 |  |  |  |  |  | < 1e-05
24 | U56A C58U | 0.00027 ± 2.5e-05 | 3350 ± 650 | 0.000108 ± 1.9e-05 | 0.000208 ± 3.2e-05 |  | 5.03e-05 ± 1.6e-05 | 
25 | U55G G62U | < 1e-05 |  |  | < 1e-05 | < 1e-05 |  | 
26 | U55C C71G | 0.000144 ± 9.8e-06 | 1810 ± 300 | 8.92e-05 ± 1.3e-05 | 0.000118 ± 1.9e-05 |  | 3.46e-05 ± 9.7e-06 | 
27 | U55C C71U | 0.00258 ± 5.1e-05 | 1620 ± 49 | 0.00157 ± 0.00021 | 0.00222 ± 0.00029 | 0.000225 ± 3.7e-05 | 0.000749 ± 0.00015 | 6.36e-05 ± 1e-05
28 | U54C G59U | 4.57e-05 ± 2.2e-05 |  |  | 2.45e-05 ± 1.2e-05 |  |  | 
29 | U55A A64G | 0.0275 ± 0.012 |  | 0.0275 ± 0.0092 | 0.0227 ± 0.0054 | 0.00181 ± 0.00043 | 0.0094 ± 0.0023 | 0.000991 ± 0.00014
30 | U55A A64C | 0.000188 ± 3.5e-05 |  | 0.000144 ± 2.3e-05 | 0.000149 ± 1.3e-05 |  | 2.82e-05 ± 1.2e-05 | 
31 | U54G C70G | 0.000119 ± 2.1e-05 |  | 0.000182 ± 2.5e-05 | 9.76e-05 ± 9.2e-06 | 0.000128 ± 1.7e-05 | 0.000182 ± 2.2e-05 | 8.74e-05 ± 8.1e-06
32 | U55G U57A | 0.000252 ± 8.2e-06 | 2520 ± 190 | 0.000124 ± 1.5e-05 | 0.000203 ± 2e-05 |  | 5.17e-05 ± 1e-05 | 
33 | U56C U65G | 0.000503 ± 9.7e-05 |  | 0.000206 ± 7.7e-05 | 0.00041 ± 8.6e-05 |  |  | 
34 | U56C U65A | 0.0012 ± 0.00021 | 7470 ± 2000 | 0.000269 ± 5.1e-05 | 0.000702 ± 8.3e-05 | 2.29e-05 ± 1.1e-05 | 0.000115 ± 2.5e-05 | 
35 | U55C G66A | 0.0117 ± 0.003 | 1240 ± 450 | 0.0116 ± 0.0017 | 0.00884 ± 0.0018 | 0.00128 ± 0.0002 | 0.0034 ± 0.00061 | 0.0004 ± 6.8e-05
